{
  "source": "patent US8536129B2",
  "about": "“Treatment for anxiety” (NoNO Inc., priority 2007, dated 2013)",
  "origin": "cited, not measured here",
  "biological_target": "N-type calcium channels (Homo sapiens, UniProt Q00975)",
  "sequence (Q00975 whole entry)": "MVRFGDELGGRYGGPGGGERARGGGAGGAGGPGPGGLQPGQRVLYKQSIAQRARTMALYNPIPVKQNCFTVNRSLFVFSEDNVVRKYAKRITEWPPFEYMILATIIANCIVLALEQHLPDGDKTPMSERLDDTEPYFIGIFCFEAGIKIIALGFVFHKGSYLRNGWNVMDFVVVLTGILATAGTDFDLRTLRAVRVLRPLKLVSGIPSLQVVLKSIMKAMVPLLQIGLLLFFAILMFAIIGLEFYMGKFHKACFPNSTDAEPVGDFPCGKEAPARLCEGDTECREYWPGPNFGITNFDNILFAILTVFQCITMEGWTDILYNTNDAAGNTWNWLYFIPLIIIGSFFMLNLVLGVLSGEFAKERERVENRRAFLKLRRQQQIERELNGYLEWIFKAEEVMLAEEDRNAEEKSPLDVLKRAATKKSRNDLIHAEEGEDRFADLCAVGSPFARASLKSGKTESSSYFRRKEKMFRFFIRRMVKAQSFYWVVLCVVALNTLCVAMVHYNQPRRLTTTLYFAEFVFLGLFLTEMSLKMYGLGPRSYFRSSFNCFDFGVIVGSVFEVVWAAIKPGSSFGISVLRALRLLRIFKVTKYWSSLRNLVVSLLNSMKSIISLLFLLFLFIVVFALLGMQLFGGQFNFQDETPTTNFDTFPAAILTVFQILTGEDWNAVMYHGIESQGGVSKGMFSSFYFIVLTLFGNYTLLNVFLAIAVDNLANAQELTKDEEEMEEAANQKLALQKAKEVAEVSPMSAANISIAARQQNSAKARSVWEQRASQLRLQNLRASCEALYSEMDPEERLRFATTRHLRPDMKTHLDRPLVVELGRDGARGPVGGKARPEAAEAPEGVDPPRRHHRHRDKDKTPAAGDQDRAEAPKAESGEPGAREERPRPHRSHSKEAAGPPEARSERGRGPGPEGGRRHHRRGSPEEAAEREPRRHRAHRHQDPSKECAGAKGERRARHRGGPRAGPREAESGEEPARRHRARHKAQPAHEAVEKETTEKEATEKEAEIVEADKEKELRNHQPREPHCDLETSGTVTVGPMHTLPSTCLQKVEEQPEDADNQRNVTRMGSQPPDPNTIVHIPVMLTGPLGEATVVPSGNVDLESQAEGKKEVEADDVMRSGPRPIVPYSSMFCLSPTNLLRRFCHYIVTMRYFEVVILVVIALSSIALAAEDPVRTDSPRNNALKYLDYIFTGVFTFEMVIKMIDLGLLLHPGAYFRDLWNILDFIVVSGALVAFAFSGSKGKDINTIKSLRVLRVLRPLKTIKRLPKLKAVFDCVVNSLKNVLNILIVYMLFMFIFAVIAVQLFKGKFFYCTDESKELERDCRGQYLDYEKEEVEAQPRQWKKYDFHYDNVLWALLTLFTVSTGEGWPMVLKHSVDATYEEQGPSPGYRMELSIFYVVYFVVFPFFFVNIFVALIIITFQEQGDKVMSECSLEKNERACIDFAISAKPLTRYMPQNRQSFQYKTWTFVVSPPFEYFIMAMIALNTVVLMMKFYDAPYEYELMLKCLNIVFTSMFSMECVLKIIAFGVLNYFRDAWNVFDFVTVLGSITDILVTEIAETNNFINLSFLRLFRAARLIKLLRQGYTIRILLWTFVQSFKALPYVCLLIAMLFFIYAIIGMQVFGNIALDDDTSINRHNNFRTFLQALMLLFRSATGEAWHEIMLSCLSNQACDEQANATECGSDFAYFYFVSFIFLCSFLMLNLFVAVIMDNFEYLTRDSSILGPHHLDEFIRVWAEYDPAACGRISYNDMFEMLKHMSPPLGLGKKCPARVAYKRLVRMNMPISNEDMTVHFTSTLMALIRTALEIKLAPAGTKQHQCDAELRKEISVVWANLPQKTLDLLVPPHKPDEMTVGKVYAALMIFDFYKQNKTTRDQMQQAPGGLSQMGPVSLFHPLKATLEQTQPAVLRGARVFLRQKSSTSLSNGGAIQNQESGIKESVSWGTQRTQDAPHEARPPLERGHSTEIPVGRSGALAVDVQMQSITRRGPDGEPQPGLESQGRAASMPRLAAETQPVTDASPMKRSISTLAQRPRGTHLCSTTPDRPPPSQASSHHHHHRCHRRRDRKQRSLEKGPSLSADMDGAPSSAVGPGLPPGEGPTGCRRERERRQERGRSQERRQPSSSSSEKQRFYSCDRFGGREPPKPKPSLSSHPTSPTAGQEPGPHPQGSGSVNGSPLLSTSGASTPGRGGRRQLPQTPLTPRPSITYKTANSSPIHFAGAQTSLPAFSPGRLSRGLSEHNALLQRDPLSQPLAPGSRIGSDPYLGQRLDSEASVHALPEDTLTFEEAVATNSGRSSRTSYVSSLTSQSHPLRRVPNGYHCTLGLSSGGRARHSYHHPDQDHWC",
  "details": "reported in co-pending application 60/904,507",
  "data": [
    {"sequence": "YGRKKRRQRRR [standard tat peptide]", "values": [
      {"measurement": "binding to and inhibition of N-type calcium channels", "value": "binds to and inhibits N-type calcium channels"}
    ]}
  ]
}
